In publication PMC9064986 (2022):
Substitutions are numbered along the chain they refer to.

T1: BMPRII ECD S107P (human, UniProt Q13873-1 27-150, S107P)
T1 sequence: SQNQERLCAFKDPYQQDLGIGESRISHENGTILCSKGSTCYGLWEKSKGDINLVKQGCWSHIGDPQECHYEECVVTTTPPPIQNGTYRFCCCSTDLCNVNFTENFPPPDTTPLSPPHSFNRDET

T2: BMPRII ECD N126S (human, UniProt Q13873-1 27-150, N126S)
T2 sequence: T1 sequence with P81S, N100S

T3: BMPRII ECD Q92H (human, UniProt Q13873-1 27-150, Q92H)
T3 sequence: T1 sequence with Q66H, P81S

T4: BMPRII ECD E98K (human, UniProt Q13873-1 27-150, E98K)
T4 sequence: T1 sequence with E72K, P81S

T5: BMPRII ECD G89E (human, UniProt Q13873-1 27-150, G89E)
T5 sequence: T1 sequence with G63E, P81S

T6: BMPRII ECD G89W (human, UniProt Q13873-1 27-150, G89W)
T6 sequence: T1 sequence with G63W, P81S

T7: BMPRII ECD G89A (human, UniProt Q13873-1 27-150, G89A)
T7 sequence: T1 sequence with G63A, P81S

B1: Recombinant human BMP10 growth factor (GF)-domain (R&D Systems) (ligand)
chain: NAKGNYCKRTPLYIDFKEIGWDSWIIAPPGYEAYECRGVCNYPLAEHLTPTKHAIIQALVHLKNSQKASKACCVPTKLEPISILYLDKGVVTYKFKYEGMAVSECGCR
B2: BMPRII extracellular domain (ECD), wild type (domain or fragment)
chain: T1 sequence with P81S
B3: BMPRII-Fc (R&D Systems) (Fc fusion)
chain: T1 sequence with P81S

Assays:
BMPRII ECD S107P [1] = target: T1, BMPRII ECD S107P; test: SPR
BMPRII ECD N126S [2] = target: T2, BMPRII ECD N126S; test: SPR
BMPRII ECD Q92H [3] = target: T3, BMPRII ECD Q92H; test: SPR
BMPRII ECD E98K [4] = target: T4, BMPRII ECD E98K; test: SPR
BMPRII ECD G89E [5] = target: T5, BMPRII ECD G89E; test: SPR
BMPRII ECD G89W [6] = target: T6, BMPRII ECD G89W; test: SPR
BMPRII ECD G89A [7] = target: T7, BMPRII ECD G89A; test: SPR
BMPRII ECD S107P [8] = target: T1, BMPRII ECD S107P; test: SPR; remark: listed apart in the source
BMPRII ECD N126S [9] = target: T2, BMPRII ECD N126S; test: SPR; remark: listed apart in the source
BMPRII ECD Q92H [10] = target: T3, BMPRII ECD Q92H; test: SPR; remark: listed apart in the source
BMPRII ECD E98K [11] = target: T4, BMPRII ECD E98K; test: SPR; remark: listed apart in the source
BMPRII ECD G89E [12] = target: T5, BMPRII ECD G89E; test: SPR; remark: listed apart in the source
BMPRII ECD G89W [13] = target: T6, BMPRII ECD G89W; test: SPR; remark: listed apart in the source
BMPRII ECD G89A [14] = target: T7, BMPRII ECD G89A; test: SPR; remark: listed apart in the source
BMPRII-Fc (R&D Systems) [15] = target: B3; test: SPR; BMP10 pre-complexed with ALK1 ECD
BMPRII ECD ΔF1 = BMPRII ECD ΔF1 (human, UniProt Q13873-1 27-150); test: SPR
BMPRII ECD ΔF3 = BMPRII ECD ΔF3 (human, UniProt Q13873-1 27-150); test: SPR
BMPRII-Fc (R&D Systems) [16] = target: B3; test: SPR; BMPRII-Fc immobilised
BMPRII-Fc (R&D Systems) [17] = target: B3; test: SPR; BMPRII-Fc immobilised
BMPRII-Fc (R&D Systems) [18] = target: B3; test: SPR; BMP10 pre-complexed with ALK1 ECD
[19] = target: B1; test: SPR
[20] = target: B1; test: SPR
[21] = target: B1; test: SPR; BMP10 immobilised
[22] = target: B1; test: SPR; BMP10 immobilised

Binder: B1
- koff (BMPRII ECD S107P [1]): 0.0423 s⁻¹
- koff (BMPRII ECD N126S [2]): 0.14 s⁻¹
- koff (BMPRII ECD Q92H [3]): 0.147 s⁻¹
- koff (BMPRII ECD E98K [4]): 0.158 s⁻¹
- koff (BMPRII ECD G89E [5]): 0.609 s⁻¹
- koff (BMPRII ECD G89W [6]): 0.433 s⁻¹
- koff (BMPRII ECD G89A [7]): 0.331 s⁻¹
- Kd (BMPRII ECD S107P [8]): 328 nM
- Kd (BMPRII ECD N126S [9]): 1320 nM
- Kd (BMPRII ECD Q92H [10]): 1220 nM
- Kd (BMPRII ECD E98K [11]): 1070 nM
- Kd (BMPRII ECD G89E [12]): 153 µM
- Kd (BMPRII ECD G89W [13]): 237 µM
- Kd (BMPRII ECD G89A [14]): 3.19 µM
- koff (BMPRII-Fc (R&D Systems) [15]): 0.00138 s⁻¹
- Kd (BMPRII ECD ΔF1): 6.63 µM
- koff (BMPRII ECD ΔF1): 0.309 s⁻¹
- Kd (BMPRII ECD ΔF3): 4.17 µM
- koff (BMPRII ECD ΔF3): 0.49 s⁻¹
- Kd (BMPRII-Fc (R&D Systems) [16]): 0.338 nM
- koff (BMPRII-Fc (R&D Systems) [17]): 0.000838 s⁻¹
- Kd (BMPRII-Fc (R&D Systems) [18]): 1.6 nM

Binder: B2
- koff [19]: 0.161 s⁻¹
- Kd [20]: 1190 nM

Binder: B3
- Kd [21]: 4.47 nM
- koff [22]: 0.000857 s⁻¹
